Assay results from article PMC11976344.
Ends that are not written are not given here.

What was measured:
CCL8 [1] = biological target: CCL8 (UniProt P80075)
CCL8 [2] = biological target: CCL8 (UniProt P80075); remark: listed apart in the source

Sequence of UniProt P80075 (P80075 24-99): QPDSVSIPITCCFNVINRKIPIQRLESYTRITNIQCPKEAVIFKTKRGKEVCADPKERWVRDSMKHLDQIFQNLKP

Evasin P672 (natural protein)
IC50 of inhibition of CCL8-induced THP1 cell migration (CCL8 [1]): 4.6 to 10 nM

YEDEDYEDFFKPVTCYF (also: dimer via disulfide between the Cys of the two copies) [BK1.3 (17-mer synthetic dimeric peptide derived from Evasin P672)]
IC50 of inhibition of CCL8-driven THP-1 cell migration (dose-response peptide titration) (CCL8 [2]): 4.2 nM
